Measurements as given in patent US20140065069A1, “Materials and Methods Relating to Cardiovascular Imaging” (KING'S COLLEGE LONDON, priority 2011, published 2014).
Entries after “also recorded” stand apart in the source; their conditions may differ. No end group written: not given here.

Key:
tropoelastin = target: T1, tropoelastin (Mus musculus, UniProt P54320); experiment: In vivo imaging of plaques in HFD fed ApoE−/− mice with gadolinium labelled conjugates; conditions: gadolinium labelled conjugate
T1 construct: from tissue; host or cells: plaque-laden brachiocephalic artery and aortic arch of living HFD-fed ApoE-/- mice
T1 sequence (P54320 28-860): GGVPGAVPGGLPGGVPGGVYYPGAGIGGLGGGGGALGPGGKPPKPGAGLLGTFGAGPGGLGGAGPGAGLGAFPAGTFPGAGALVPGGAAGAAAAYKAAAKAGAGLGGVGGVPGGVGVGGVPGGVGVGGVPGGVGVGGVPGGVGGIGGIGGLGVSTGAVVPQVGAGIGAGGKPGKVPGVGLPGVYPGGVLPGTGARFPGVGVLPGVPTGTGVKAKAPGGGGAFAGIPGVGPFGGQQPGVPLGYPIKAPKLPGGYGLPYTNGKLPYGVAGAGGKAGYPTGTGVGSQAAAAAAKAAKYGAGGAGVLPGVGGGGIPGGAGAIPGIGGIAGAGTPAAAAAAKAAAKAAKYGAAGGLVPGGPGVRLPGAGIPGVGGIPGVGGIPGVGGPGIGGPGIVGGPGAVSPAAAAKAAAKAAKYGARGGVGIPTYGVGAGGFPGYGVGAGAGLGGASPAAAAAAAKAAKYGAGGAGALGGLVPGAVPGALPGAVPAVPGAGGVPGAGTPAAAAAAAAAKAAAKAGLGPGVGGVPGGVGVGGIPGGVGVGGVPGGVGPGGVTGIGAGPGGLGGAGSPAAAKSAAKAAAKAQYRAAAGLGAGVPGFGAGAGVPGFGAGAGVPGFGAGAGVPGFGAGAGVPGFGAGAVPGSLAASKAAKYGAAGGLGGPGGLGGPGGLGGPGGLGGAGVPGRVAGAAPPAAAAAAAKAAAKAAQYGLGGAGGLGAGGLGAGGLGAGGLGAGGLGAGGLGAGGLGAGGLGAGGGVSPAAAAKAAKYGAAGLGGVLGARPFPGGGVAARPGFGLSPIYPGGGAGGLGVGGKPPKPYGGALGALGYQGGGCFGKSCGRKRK
Excerpt: MRI will be performed in a mouse model of progressive atherosclerosis at 4, 8 and 12 weeks post commencement of a high fat diet and in a model of angiotensin-II (Ang-II) induced aortic aneurysm formation at 1, 2, 3 and 4 weeks post Ang-II releasing mini pump implantation. Ten mice will be scanned at each time point either receiving the tropoelastin or TNF-alpha binding contrast agent (CA) resulting in a total of […], respectively. Animals will undergo a pre and post contrast MRI session at each time point and subsequently will be sacrificed for validation with histology, immunostaining, electron and mass spectroscopy.

Row | Substance | uptake in plaque-free carotid artery (tropoelastin) | uptake in plaque-laden brachiocephalic artery (BCA) and aortic arch (tropoelastin) | time of imaging post contrast injection (12 weeks HFD fed ApoE−/− mice) [h] | biodistribution (HFD fed ApoE−/− mice) | renal clearance (HFD fed ApoE−/− mice)
1 | (DOTA-Gd)-VVGSPSAQDEASPLS (not fully specified (N-terminus); printed as (DOTA-Gd)-VVGSPSAQDEASPLS; also: Gd complexed by DOTA) | no uptake; also recorded: not in the plaque-free carotid artery | preferential uptake | ≥ 1 | favourable biodistribution | rapid renal clearance
2 | K(DOTA-Gd)-YPDHVQYTHY (not fully specified (N-terminus); printed as K(DOTA-Gd)-YPDHVQYTHY; also: Gd complexed by DOTA on the N-terminal Lys) [K-(DOTA-Gd)-YPDHVQYTHY] | no uptake | preferential uptake | – | – | –
